Test results: article PMC8452626

Molecular target: Rabbit skeletal actin (unoxidized) (rabbit) (UniProt P68135)
Assay: other fluorescence titration; profilin stock titrated into 0.15 uM actin; quenching of the intrinsic tryptophan fluorescence of actin, excitation 295 nm, emission 330 nm; 5 mM PIPES pH 7, 0.2 mM CaCl2, 0.2 mM ATP, 0.5 mM DTT (G-buffer conditions)

Kd: 0.5 µM
Substance: human profilin-1 (from UniProt P07737 1-140) (natural protein; other documents disagree on this pair)
